Assay results published in patent US20220396822A1, “Method for Measuring Pentosidine and Measurement Kit” (Kikkoman Corporation, priority 2019, published 2022).

B1: amino acid degrading enzyme 1: mature escapin derived from Aplysia californica (SEQ ID NO: 15) expressed in Aspergillus sojae (protein, listed as Aplysia californica)
chain: DGVCRNRRQCNKEVCGSSYDVAIVGAGPGGANSAYMLRESGLDIAVFEYSDRVGGRLFTYQLPNTPDVNLEIGGMRFIEGAMHRLWKVISELGLTPKVFKEGFGKEGRQRFYLRGQSLTKKQVKSGDVPYDLSPEEKANQGRLVEYYLEKLTGLQLNGGPLKREVALKLTVPDGRFLYDLTFDEALDLVASPEGKEFARDTHVFTSEVTLDASAISIFDDHLGEDYYGSEIYTLEEGMSSVPQGLLQTFLDAAKSNEFFPNNHLKALRRRTNGQYVLYFEPTTSKDGQTTINYLEPLKVVCAQRVILAMPVYALRQLDWSQLRNDRATQAYRAVRPMPASKVFMTFDQPWWLQNERKSWVTKSDALFSQMYDWQKSEASGDYILIASYADGLKAQYLRELKNQGEDIPGSDPGYNQVTVPLKDAILEHLTEAYGVERDSIPEPVTAASQFWTDYPFGCGWITWRAGYHFDDVISTMRRPSLKDEVYVVGSDYSWGLISSWIEGALETSENVINDYFL
B2: PenOX1: protein having the amino acid sequence of SEQ ID NO: 2, pentosidine oxidase from a filamentous fungus of the genus Sarocladium (protein, listed as Sarocladium sp.)
chain: MKSPSLAVAGLLLGSSSLSHATQLRIETRKSLNSRIANVHIDVDAPVAHQVVFTYGPCDSESQENAHHVIAQSQKLEGRKPHRLIWTMPKDLHPDDCISAWGESGDLLGRSVPQKVAHKEMRRRKRDDSDYSIPMNSSSGIDVYGPWFDGVALLEKSDNHNVDVEAAKAKEIAIVGAGMAGLTTYFILSEAGLSNLTILEASGRLGGRVRTEYLSGGPRDHSYAEMGPMRIPYQARFGDKAYNISDQAIFFRLVEKVNERNKKLGNTKDLINLIPFIQSSPNGLAYYQGNKLENGLPPTQADVAADPALGNESPEIPESAQELAAQLQRALPNAEFLELMATNFWQAHAEFLENQGPAGLPGDQWSEFAFLVNYLNATVFDANAVTGGYDWHSSLDRSSLVGMNLLPNAFHPLVDDITKFNAKVEKVQLDEKTSRLKLHWRANYTDPELESQSFDYAILSPTMPAVQKLRLPGLPFAMRNAVDSMPYASACKVALEYRTRFWEKFDNPIYGSCSTSTDIPGIGSVCYPSSNINGSGPASLLASYEIGRPYGAEWAGIPEEQHVQYVIDAMIDIHGEVARREFTGKCKRKCWALDEFSNGGWASPTVGNHETYLPSFFETHSHMIFVGEHTSYTHAWIASAIESAVRGSVQLLLELGLIDEAKDVVNTWMARWISVVSDLSKAVVSGASA
B3: Crotalus Atrox-Derived Amino Acid Oxidase Type I: purchased enzyme manufactured by Merck KGaA, SEQ ID NO: 13 (protein)
chain: AHDRNPLEECFRETDYEEFLEIAKNGLTATSNPKRVVIVGAGMAGLSAAYVLAGAGHQVTVLEASERVGGRVRTYRKKDWYANLGPMRLPTKHRIVREYIKKFDLKLNEFSQENENAWYFIKNIRKRVREVKNNPGLLEYPVKPSEEGKSAAQLYVESLRKVVEELRSTNCKYILDKYDTYSTKEYLLKEGNLSPGAVDMIGDLLNEDSGYYVSFIESLKHDDIFGYEKRFDEIVGGMDQLPTSMYEAIKEKVQVHFNARVIEIQQNDREATVTYQTSANEMSSVTADYVIVCTTSRAARRIKFEPPLPPKKAHALRSVHYRSGTKIFLTCTKKFWEDDGIHGGKSTTDLPSRFIYYPNHNFTSGVGVIIAYGIGDDANFFQALDFKDCADIVINDLSLIHELPKEDIQTFCHPSMIQRWSLDKYAMGGITTFTPYQFQHFSEALTAPFKRIYFAGEYTAQFHGWIDSTIKSGLTAARDVNRASENPSGIHLSNDNEF
modifications: Crotalus atrox
B4: amino acid eliminating enzyme 2: Crotalus adamanteus-derived L-amino acid oxidase Type I, manufactured by Merck KGaA (SEQ ID NO: 19) (protein, listed as Crotalus adamanteus)
chain: B3 chain
B5: Trichoderma viride-Derived Lysine Oxidase: purchased enzyme manufactured by Merck KGaA, SEQ ID NO: 14 (protein)
chain: MDNVDFAESVRTRWARRLIREKVAKELNILTERLGEVPGIPPPREGRFLGGGYSHDNLPSDPLYSSIKPALLKEAPRAEEELPPRKVCIVGAGVSGLYIAMILDDLKIPNLTYDIFESSSRTGGRLYTHHFTDAKHDYYDIGAMRYPDIPSMKRTFNLFKRTGMPLIKYYLDGENTPQLYNNHFFAKGVVDPYMVSVANGGTVPDDVVDSVGEKLQQAFGYYKEKLAEDFDKGFDELMLVDDMTTREYLKRGGPKGEAPKYDFFAIQWMETQNTGTNLFDQAFSESVIDSFDFDNPTKPEWYCIEGGTSLLVDAMKETLVHKVQNNKRVEAISIDLDAPDDGNMSVKIGGKDYSGYSTVFNTTALGCLDRMDLRGLNLHPTQADAIRCLHYDNSTKVALKFSYPWWIKDCGITCGGAASTDLPLRTCVYPSYNLGDTGEAVLLASYTWSQDATRIGSLVKDAPPQPPKEDELVELILQNLARLHAEHMTYEKIKEAYTGVYHAYCWANDPNVGGAFALFGPGQFSNLYPYLMRPAAGGKFHIVGEASSVHHAWIIGSLESAYTAVYQFLYKYKMWDYLRLLLERWQYGLQELETGKHGTAHLQFILGSLPKEYQVKIV
modifications: Trichoderma viride

Key:
Type in all cases: biochemical
[1] = Substrate specificity analysis of amino acid degrading enzymes (reaction rate, A555); settings: room temperature, pH 6.8, amino acids 4 mM, pentosidine 2 mM solutions
Experimental: The amino acid eliminating enzyme 1 liquid obtained in Example 12 was diluted to 0.134 U/ml with a 0.1 M potassium phosphate buffer (pH 6.8).
Pentosidine (which was the same as in Example 12) was dissolved at 2 mM in deionized water. Various amino acids were each dissolved at 4 mM in deionized water.
Peroxidase (manufactured by Toyobo Co., Ltd.) (3.99 U/ml), 4-aminoantipyrine (manufactured by Fluka/Honeywell International Inc.) (1.8 mM), and TOOS (manufactured by Dojindo Laboratories Co., Ltd.) (2 mM) were dissolved in deionized water.
Every measurement was performed at room temperature unless otherwise specified. A 96-well microwell plate (manufactured by Nunc/Thermo Fisher Scientific, Inc.) was used in reaction.
25 μl of each amino acid solution or the pentosidine solution of (2) and 25 μl of the coloring reagent of (3) were added in order to 50 μl of the enzyme liquid of (1). At the start and ten minutes later, absorbance at 555 nm was measured. A slope of elevation in absorbance was regarded as a reaction rate for the target substrate. […]
Every measurement was performed at room temperature unless otherwise specified. […] At the start and ten minutes later, absorbance at 555 nm was measured. A slope of elevation in absorbance was regarded as a reaction rate for the target substrate.

[2] = Pentosidine quantification test (DA-67/peroxidase, A658); settings: 37° C., pH 7.0
Experimental: The following reagents were prepared, and pentosidine was measured using Bio Majesty JCA-BM1650 (manufactured by JEOL Ltd.).
0.2 μM, 0.4 μM, 0.6 μM, 1.0 μM, 2.0 μM or 4.0 μM pentosidine solution (prepared using the same pentosidine as in Example 2)
120 mM potassium phosphate buffer (pH 7.0)
0.2 mM DA-67 (10-(carboxymethylaminocarbonyl)-3,7-bis(dimethylamino)phenothiazine, sodium salt) (manufactured by FUJIFILM Wako Pure Chemical Corp.)
25 μL of each sample was added to 50 μL of the first reagent, and the mixture was incubated at 37° C. for 5 minutes. Then, 25 μL of the second reagent was added thereto, and pentosidine oxidation reaction mediated by PenOX2 and reaction for the detection of hydrogen peroxide produced through the reaction were allowed to proceed at 37° C. for 5 minutes.
In the reaction for the detection of hydrogen peroxide, DA-67 was oxidized, with concomitant consumption of […], into methylene blue which in turn developed color while absorbance (A658) was elevated. […] Elevation in A658 was able to be confirmed immediately after addition of the second reagent containing PenOX2.
Subsequently, the amount of elevation in A658 (ΔA) caused by the oxidation of pentosidine was calculated according to the following expression.
ΔA=(Absorbance 5 minutes after addition of the second reagent)−(Absorbance immediately before addition of the second reagent×0.75)

[3] = Method for measuring enzymatic activity (pentosidine oxidase activity, A555), Examples 9 and 10; settings: 37° C., pH 7.5; 1 mg enzyme powder in 1 mL deionized water
Experimental: The amount of the enzyme that produced 1 μmol of hydrogen peroxide per minute at 37° C. was defined as 1 unit (U). The activity was calculated according to the following expression.
Each buffer was prepared as a 50 mM (final concentration) citric acid-100 mM potassium phosphate buffer (pH 4.0 to 7.5), a 100 mM (final concentration) potassium phosphate buffer (pH 6.5 to 8.0), and a 100 mM (final concentration) glycine buffer (pH 8.0 to 11.0). Enzyme reaction was performed at each pH at a temperature of 37° C. using these buffers. […] It was therefore concluded that the optimum pH of PenOX2 is pH 6.5 to 8.0 and is most preferably pH 7.5.
The activity of PenOX2 was measured at varying temperatures using a 50 mM (final concentration) potassium phosphate buffer (pH 7.5). […] It was thus concluded that the range of the optimum temperature of PenOX2 is from 37° C. to 50° C.
As mentioned above, both PenOX1 and PenOX2 had pentosidine oxidase activity. When the percent match between their amino acid sequences was examined using the BLAST program, the amino acid sequence homology therebetween was 38.2%. […] The amino acid sequence homology to PenOX1 and PenOX2 and pentosidine oxidase activity of each enzyme were as follows.

Molecule | substrate having the highest reaction rate [1] | specific activity (pentosidine oxidase) as a reference value [3] | further results
B1 | arginine | – | –
B2 | – | – | pentosidine oxidizing activity [2]: exhibited pentosidine oxidizing activity
B3 | – | 0.022 U/mg | –
B4 | leucine | – | –
B5 | – | 0.063 U/mg | –
